pKd: −log10 of the molar value.

The target of the assay is p300 TAZ2 domain with 6xHis tag (p300_(TAZ2)-6×His) (human) (UniProt Q09472). Put plainly: MST; p300_(TAZ2)-6×His labelled with RED-tris-NTA, constant at 10 nM; peptide varied by serial dilution; 25 mM Tris pH 7.5, 150 mM NaCl, 2.5 mM DTT; 1:1 stoichiometry fit.
Usually pKd stands for the negative decadic logarithm of the Kd, by convention in mol/L. Read a low pKd as a high Kd. As to “EZH2_(TAD1) peptide (aa 142-154 of EZH2) (from UniProt Q15910 142-154)”, the negative-log Kd (pKd) was 6.28. As for “EZH2_(TAD2) peptide (aa 167-185 of EZH2) (from UniProt Q15910 167-185)”, the pKd is 6.51. Take “EZH2_(TAD3) peptide (aa 220-231 of EZH2) (from UniProt Q15910 220-231)”: the pKd was 6.28.

The values above are taken from article PMC12312386, “Multiple transactivation domains of EZH2 bind to the TAZ2 domain of p300 and stimulate the acetyltransferase function of p300” (Biochemical Journal, 2025).
